Measurements taken from PMC4474532 (2015).

B1: BiP (natural protein)
chain: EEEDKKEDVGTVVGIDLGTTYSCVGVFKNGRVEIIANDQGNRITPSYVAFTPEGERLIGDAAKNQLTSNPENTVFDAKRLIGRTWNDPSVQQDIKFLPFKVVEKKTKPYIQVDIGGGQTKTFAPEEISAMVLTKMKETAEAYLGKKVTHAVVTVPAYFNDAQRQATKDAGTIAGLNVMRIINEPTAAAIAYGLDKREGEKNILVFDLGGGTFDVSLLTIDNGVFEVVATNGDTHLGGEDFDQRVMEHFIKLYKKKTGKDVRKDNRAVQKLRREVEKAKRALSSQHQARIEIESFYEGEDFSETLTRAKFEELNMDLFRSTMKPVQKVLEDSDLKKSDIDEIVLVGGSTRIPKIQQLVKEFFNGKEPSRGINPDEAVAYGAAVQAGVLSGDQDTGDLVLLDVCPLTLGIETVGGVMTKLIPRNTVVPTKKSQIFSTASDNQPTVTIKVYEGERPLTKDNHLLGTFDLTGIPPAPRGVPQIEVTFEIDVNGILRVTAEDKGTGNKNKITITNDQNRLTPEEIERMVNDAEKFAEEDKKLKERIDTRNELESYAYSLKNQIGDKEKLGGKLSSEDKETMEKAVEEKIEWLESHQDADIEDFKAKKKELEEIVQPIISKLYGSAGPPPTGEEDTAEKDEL

Assays:
Assay in all cases: MST
BiP = target: B1
[1] = target: PERK luminal domain A378N (human, UniProt Q9NZJ5 105-403, A378N)
[2] = target: PERK luminal domain L395N (human, UniProt Q9NZJ5 105-403, L395N)

BiP, sequence (P11021 19-654): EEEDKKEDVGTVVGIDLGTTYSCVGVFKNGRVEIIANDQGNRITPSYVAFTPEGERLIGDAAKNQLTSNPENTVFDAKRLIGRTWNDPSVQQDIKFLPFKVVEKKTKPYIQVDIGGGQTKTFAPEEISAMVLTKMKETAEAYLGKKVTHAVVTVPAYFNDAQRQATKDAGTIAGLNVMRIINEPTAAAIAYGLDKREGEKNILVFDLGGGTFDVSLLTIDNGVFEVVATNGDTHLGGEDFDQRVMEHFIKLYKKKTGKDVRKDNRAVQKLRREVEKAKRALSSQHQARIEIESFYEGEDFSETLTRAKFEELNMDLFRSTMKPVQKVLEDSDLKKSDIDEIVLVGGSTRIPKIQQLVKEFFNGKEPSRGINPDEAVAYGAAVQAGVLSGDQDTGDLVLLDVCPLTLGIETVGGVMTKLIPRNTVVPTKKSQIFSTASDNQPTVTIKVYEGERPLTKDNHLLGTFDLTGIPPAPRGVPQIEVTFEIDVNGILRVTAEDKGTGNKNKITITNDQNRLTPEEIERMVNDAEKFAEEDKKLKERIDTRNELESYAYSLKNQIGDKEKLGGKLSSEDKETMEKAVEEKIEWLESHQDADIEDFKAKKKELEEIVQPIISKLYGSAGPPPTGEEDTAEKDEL

Binder | Kd (BiP) [µM] | Kd [1] [µM] | Kd [2] [µM]
human PERK luminal domain (residues 105–403) (domain or fragment) LVIISTLDGRIAALDPENHGKKQWDLDVGSGSLVSSSLSKPEVFGNKMIIPSLDGALFQWDQDRESMETVPFTVESLLESSYKFGDDVVLVGGKSLTTYGLSAYSGKVRYICSALGCRQWDSDEMEQEEDILLLQRTQKTVRAVGPRSGNEKWNFSVGHFELRYIPDMETRAGFIESTFKPNENTEESKIISDVEEQEAAIMDIVIKVSVADWKVMAFSKKGGHLEWEYQFCTPIASAWLLKDGKVIPISLFDDTSYTSNDDVLEDEEDIVEAARGATENSVYLGMYRGQLYLQSSVRI | 2 | – | –
B1 | – | 2.3 | 1.8
